Reference: patent publication US20230364000A1, “COMPOSITIONS COMPRISING COMBINATIONS OF COLLAGEN OR ELASTIN POLYPEPTIDES WITH ACTIVE INGREDIENTS AND METHODS OF USING SAME” (Geltor, Inc., priority 2020, published 2023)

System: facial skin
Assay: Expert clinical grader evaluation of facial skin (10 cm VAS; five-point ordinal scale for erythema), clinical study of Example 3
Type: in vivo, human
Conditions: 0.1% w/w topical formulation, Week 2
Method: A clinical study using human subjects to determine the effects of a topical skincare product containing truncated human type 21 collagen (SEQ ID NO: 16) is performed. The research is performed according to U.S. and International standards of Good Clinical Practice (FDA and ICH guidelines) and applicable government regulations.
A base formulation (control formulation) made of water, olive oil glycereth-8 esters, glycerin, coconut alkanes, hydroxyethyl acrylate/sodium acryloyldimethyl taurate copolymer, pentylene glycol, disodium EDTA, caprylyl glycol, chlorphenesin, phenoxyethanol is prepared. A formulation containing the truncated human type 21 collagen is prepared by adding sufficient collagen to prepare a topical formulation containing 0.1% w/w collagen.
Visual Analog Scales (VAS) are commonly used in clinical research to measure intensity or frequency of various symptoms, subjective characteristics or attitudes that cannot be directly measured. VAS are a reliable scale and more sensitive to small changes than simple ordinal scales. (A. Paul-Dauphin, F. Guillemin, J. Virion and S. Briancon, “Bias and precision in visual analog scales: A randomized controlled trial,” American Journal of Epidemiology, vol. 150, no. 10, pp. 1117-27, 1999). When responding to a VAS item, the expert grader specifies their level of agreement to a statement by indicating a position along a line (10 cm) between two end-points or anchor responses. Simple VAS is used to evaluate efficacy parameters in which the ends of a 10 cm horizontal line is defined as extreme limits orientated from the left (best) to the right (worst). Signs of photo-aging can be classified as follows: Mild=1-3.9 cm, Moderate=4-6.9 cm, Severe=7-10 cm.
Ordinal scales allow a number to be directly and objectively attached to the quality of a given attribute. When responding to an ordinal scale item, the expert grader specifies their level of agreement to a statement by choosing a set grade, or level.
The appearance of each subject's facial skin redness (erythema) is assessed by an expert grader using the following five-point ordinal scale for qualification at Baseline (Table 6). If qualified, each subject will undergo further erythema assessments at week 2, week 4, week 6 and week 8.
Fourteen female subjects are enrolled. The inclusion criteria are Caucasian female subjects with Fitzpatrick skin type III in good general health, and between ages of 35 and 65 years old, inclusive at enrollment. Inclusion criteria also include signs of aging on face as determined by an expert grader at a baseline of: a) Score of >2 cm<6 on 10 cm scale for lines/wrinkles; and b) Score of >1<3 on 5-point ordinal scale for facial redness (erythema). Table 7 discloses the demographics of the study participants.
The results of the expert clinical grader evaluation on lines/wrinkles, firmness (visual), elasticity (tactile), brightness, texture/softness (tactile), texture/smoothness (visual) and erythema after two weeks treatment are shown in Table 8. All of the tested characteristics were improved. The scores for brightness, texture/softness (tactile), texture/smoothness (visual) and erythema improved with statistical significance.

B1: SEQ ID NO: 16: truncated human collagen type 21 alpha 1 without the DsbA secretion tag, recombinantly expressed in E. coli (protein)
chain: AGFPGLPGPAGEPGRHGKDGLMGSPGFKGEAGSPGAPGQDGTRGEPGIPGFPGNRGLMGQKGEIGPPGQQGKKGAPGMPGLMGSNGSPGQPGTPGSKGSKGEPGIQGMPGASGLKGEPGATGSPGEPGYMGLPGIQGKKGDKGNQGEKGIQGQKGENGRQGIPGQQGIQGHHGAKGERGEKGEPGVR
Brightness Mean Percent Improvement From BL mean: 2.57%
Brightness Percent of Subjects Showing Improvement From BL: 78.6%
Elasticity (Tactile) Mean Percent Improvement From BL mean: 0.25%
Elasticity (Tactile) Percent of Subjects Showing Improvement From BL: 35.7%
Erythema Mean Percent Improvement From BL mean: 23.81%
Erythema Percent of Subjects Showing Improvement From BL: 35.7%
Firmness (Visual) Mean Percent Improvement From BL mean: 1.08%
Firmness (Visual) Percent of Subjects Showing Improvement From BL: 64.3%
Lines/Wrinkles (Global) Mean Percent Improvement From BL mean: 0.92%
Lines/Wrinkles (Global) Percent of Subjects Showing Improvement From BL: 57.1%
Texture/Smoothness (Visual) Mean Percent Improvement From BL mean: 3.63%
Texture/Smoothness (Visual) Percent of Subjects Showing Improvement From BL: 64.3%
Texture/Softness (Tactile) Mean Percent Improvement From BL mean: 6.43%
Texture/Softness (Tactile) Percent of Subjects Showing Improvement From BL: 71.4%
Texture/Softness (Tactile) Mean ± SD (n 14, baseline 4.82 ± 0.82, P-value 0.008*): 4.51 ± 0.89
Elasticity (Tactile) Mean ± SD (n 14, baseline 4.91 ± 0.53, P-value 0.547): 4.90 ± 0.52
Firmness (Visual) Mean ± SD (n 14, baseline 5.07 ± 0.77, P-value 0.120): 5.01 ± 0.75
Lines/Wrinkles (Global) Mean ± SD (n 14, baseline 5.22 ± 0.75, P-value 0.336): 5.17 ± 0.75
Texture/Smoothness (Visual) Mean ± SD (n 14, baseline 5.46 ± 0.70, P-value 0.009*): 5.25 ± 0.68
Brightness Mean ± SD (n 14, baseline 5.51 ± 0.54, P-value 0.010*): 5.37 ± 0.62
Erythema Mean ± SD (five-point ordinal scale, n 14, baseline 1.60 ± 0.73, P-value 0.021*): 1.21 ± 0.80
